Assay results: article PMC2191818

Target: HLA-B*0702 class I heavy chain (free heavy chain, C1R transfectant B7C1R) (human)
Assay: nonreducing SDS-PAGE of immunoprecipitates

- stoichiometry N: 2
Substance: HLA-B*0702 class I heavy chain (free heavy chain, C1R transfectant B7C1R) (natural protein)
